B1: HMAb HC-11 (antibody, V domains shown)
VH: EVQLVESGAEVKKPGSSVKVSCKASGATFSSFIFSWVRQAPGQGPEWMGGIIPMFGTAKYAPRLQGRVTITADESTSTAYMDLSSLRFEDTAVYYCAMEVPGFCRGGSCSGYMDVWGKGTLVTVSP
VL: AAVLTQSPGTLSLSPGERATLSCRASHSVSSSNLAWYQQKPGQAPRLLMYGASRRATGIPDRFSGSGSGTDFTLTISRLEPEDFAVYYCQQYGSSPITFGQGTRLDIK
notes: germline IGHV1-69, 92% nucleotide identity; heavy chain CDR3; germline kappa 3-20, 96% nucleotide identity; light chain CDR3; also called domain B HMAb

Tests used:
HC-1 = assay: global alanine scanning epitope mapping; details: antibody at 1 μg/ml
HC84.26 = assay: global alanine scanning epitope mapping; details: antibody at 1 μg/ml
HMAb 212.1.1 = assay: global alanine scanning epitope mapping; details: antibody at 2 μg/ml
HMAb CBH-5 = assay: global alanine scanning epitope mapping; details: antibody at 1 μg/ml
HMAb CBH-7 = assay: global alanine scanning epitope mapping; details: antibody at 1 μg/ml
HMAb HC-11 = assay: global alanine scanning epitope mapping; details: antibody at 1 μg/ml
[1] = biological target: H77C 1a recombinant E1E2 (hepatitis C virus genotype 1a, isolate H77C) (UniProt P27958)
[2] = biological target: H77C 1a recombinant E1E2 (hepatitis C virus genotype 1a, isolate H77C) (UniProt P27958); remark: listed apart in the source
[3] = biological target: T1, complex of Hepatitis C virus genotype 1a P27958 (hepatitis C virus genotype 1a, isolate …, UniProt P27958); assay: ELISA; blocking of E2 binding to CD81-LEL: HMAb at 10 μg/ml pre-incubated with H77C 1a E1E2 lysate (1 μg/ml E2) for 20 min at 4°C, then added to CD81-LEL wells; details: one partner purified
T1 construct: envelope glycoprotein E1, cut product of the HCV polyprotein, genotype 1a isolate H77C; envelope glycoprotein E2, cut product of the HCV polyprotein, genotype 1a isolate H77C; residue numbers count on the H77C polyprotein; also called wt 1a H77C E1E2; 1a H77C E2

Molecule	percent of parent (HC-1) [% WT]	percent of parent (HC84.26) [% WT]	percent of parent (HMAb 212.1.1) [% WT]	percent of parent (HMAb CBH-5) [% WT]	percent of parent (HMAb CBH-7) [% WT]	percent of parent (HMAb HC-11) [% WT]	% neutralization of 1a H77C HCVpp at 20 μg/ml [1] [%]	% neutralization of H77 (1a) Core-NS2 HCVcc at 25 μg/ml (FFU reduction) [2] [%]	IC50 of neutralization of H77 (1a) Core-NS2 HCVcc (FFU reduction) [2] [µg/mL]	binding result [3]
H77C 1a recombinant E1E2 (from UniProt P27958) A426G	35	88	8	0	253	23	–	–	–	–
H77C 1a recombinant E1E2 (from UniProt P27958) A439G	83	108	84	53	–	–	–	–	–	–
H77C 1a recombinant E1E2 (from UniProt P27958) C429A	0	24	0	2	157	0	–	–	–	–
H77C 1a recombinant E1E2 (from UniProt P27958) D533A	73	93	99	54	77	66	–	–	–	–
H77C 1a recombinant E1E2 (from UniProt P27958) D535A	14	–	6	0	116	1	–	–	–	–
H77C 1a recombinant E1E2 (from UniProt P27958) E431A	97	105	147	224	101	64	–	–	–	–
H77C 1a recombinant E1E2 (from UniProt P27958) E637A	246	–	–	40	145	202	–	–	–	–
H77C 1a recombinant E1E2 (from UniProt P27958) F442A	–	–	148	1	113	1	–	–	–	–
H77C 1a recombinant E1E2 (from UniProt P27958) G436A	73	–	103	11	78	0	–	–	–	–
H77C 1a recombinant E1E2 (from UniProt P27958) G440A	73	82	83	86	77	–	–	–	–	–
H77C 1a recombinant E1E2 (from UniProt P27958) G530A	14	71	9	76	–	3	–	–	–	–
H77C 1a recombinant E1E2 (from UniProt P27958) G547A	–	–	57	30	28	36	–	–	–	–
H77C 1a recombinant E1E2 (from UniProt P27958) H638A	47	34	26	6	42	27	–	–	–	–
H77C 1a recombinant E1E2 (from UniProt P27958) L427A	51	100	3	6	370	26	–	–	–	–
H77C 1a recombinant E1E2 (from UniProt P27958) L433A	97	122	2	128	103	103	–	–	–	–
H77C 1a recombinant E1E2 (from UniProt P27958) L438A	77	122	87	4	89	1	–	–	–	–
H77C 1a recombinant E1E2 (from UniProt P27958) L441A	85	12	92	0	100	75	–	–	–	–
H77C 1a recombinant E1E2 (from UniProt P27958) L546A	100	100	139	92	112	92	–	–	–	–
H77C 1a recombinant E1E2 (from UniProt P27958) N428A	34	74	15	0	134	7	–	–	–	–

Molecule	percent of parent (HC-1) [% WT]	percent of parent (HC84.26) [% WT]	percent of parent (HMAb 212.1.1) [% WT]	percent of parent (HMAb CBH-5) [% WT]	percent of parent (HMAb CBH-7) [% WT]	percent of parent (HMAb HC-11) [% WT]	% neutralization of 1a H77C HCVpp at 20 μg/ml [1] [%]	% neutralization of H77 (1a) Core-NS2 HCVcc at 25 μg/ml (FFU reduction) [2] [%]	IC50 of neutralization of H77 (1a) Core-NS2 HCVcc (FFU reduction) [2] [µg/mL]	binding result [3]
H77C 1a recombinant E1E2 (from UniProt P27958) N430A	39	85	143	–	155	–	–	–	–	–
H77C 1a recombinant E1E2 (from UniProt P27958) N434A	102	97	18	92	–	88	–	–	–	–
H77C 1a recombinant E1E2 (from UniProt P27958) N532A	82	108	152	108	101	71	–	–	–	–
H77C 1a recombinant E1E2 (from UniProt P27958) N548A	88	85	–	51	–	70	–	–	–	–
H77C 1a recombinant E1E2 (from UniProt P27958) P544A	–	–	72	45	39	41	–	–	–	–
H77C 1a recombinant E1E2 (from UniProt P27958) P545A	78	69	70	42	42	42	–	–	–	–
H77C 1a recombinant E1E2 (from UniProt P27958) R639A	100	87	88	48	86	76	–	–	–	–
H77C 1a recombinant E1E2 (from UniProt P27958) S424A	53	75	41	10	163	18	–	–	–	–
H77C 1a recombinant E1E2 (from UniProt P27958) S432A	–	102	108	73	104	57	–	–	–	–
H77C 1a recombinant E1E2 (from UniProt P27958) T425A	51	69	18	1	101	10	–	–	–	–
H77C 1a recombinant E1E2 (from UniProt P27958) T435A	67	117	86	46	89	49	–	–	–	–
H77C 1a recombinant E1E2 (from UniProt P27958) T534A	88	116	162	125	101	83	–	–	–	–
H77C 1a recombinant E1E2 (from UniProt P27958) V636A	89	72	77	34	–	63	–	–	–	–
H77C 1a recombinant E1E2 (from UniProt P27958) W437A	67	98	58	3	–	0	–	–	–	–
H77C 1a recombinant E1E2 (from UniProt P27958) W529A	0	122	9	35	187	23	–	–	–	–
H77C 1a recombinant E1E2 (from UniProt P27958) W549A	–	–	66	46	5	50	–	–	–	–
H77C 1a recombinant E1E2 (from UniProt P27958) Y443A	87	52	158	0	82	1	–	–	–	–
HMAb 212.1.1 (antibody)	–	–	–	–	–	–	89	41	36	–
B1	–	–	–	–	–	–	–	–	–	binds

From publication PMC6542541, “Broadly neutralizing antibodies from an individual that naturally cleared multiple hepatitis C virus infections uncover molecular determinants for E2 targeting and vaccine design” (PLoS Pathogens, 2019)
